In assay [1] the target is T1, human BTLA (B- and T-lymphocyte attenuator) on cells (human, UniProt Q7Z6A9 31-289).
T1 construct: whole, on cells; also called hBTLA; HEK293.BTLA
The assay can be described thus: FACS, HEK293 cells overexpressing human BTLA, AF647 anti-human IgG Fc secondary antibody. A general note: In flow cytometry, cells or beads pass a laser one at a time.

For assay [2], the target named is T2, cynomolgus BTLA on cells (cynomolgus, UniProt A0A2K5W7M7 31-289).
T2 construct: whole, on cells; Overexpressed on Expi293 cells; also called cyno BTLA; CynoBTLA
T2 sequence: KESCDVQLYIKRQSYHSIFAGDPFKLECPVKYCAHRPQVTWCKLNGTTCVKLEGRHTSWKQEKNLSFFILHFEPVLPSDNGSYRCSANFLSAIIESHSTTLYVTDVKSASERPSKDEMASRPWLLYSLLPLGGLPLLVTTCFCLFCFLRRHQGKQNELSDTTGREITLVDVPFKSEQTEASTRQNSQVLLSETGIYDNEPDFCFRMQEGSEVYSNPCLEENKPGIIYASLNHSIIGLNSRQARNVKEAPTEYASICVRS
As to the kind of experiment: FACS, Expi293 cells overexpressing cynomolgus BTLA, AF647 anti-human IgG Fc secondary antibody.

The target of assay [3] is T1, human BTLA (B- and T-lymphocyte …). As to the kind of experiment: FACS competition on HEK293.BTLA cells; competitor DL650-conjugated soluble HVEM. As to the method:
In FIG. 3A, recombinant HVEM soluble protein was conjugated with DyLight 650 (DL650) fluorophore. HEK293 cells overexpressing hBTLA (HEK293.BTLA) were preincubated with increasing concentrations of HFB6-2 and HFB6-3 at 4° C. for 30 minutes and then with DL650-conjugated HVEM for an additional 30 minutes. After washing, soluble HVEM remaining associated with BTLA on HEK293.BTLA cells was measured by FACS. HFB6-2 and HFB6-3 blocked soluble HVEM and cellular BTLA interaction with single digit nM IC₅₀.

Assay [4] has the same target. The assay can be described thus: FACS on HEK293T.hBTLA cells, AF647 anti-human IgG Fc detection. As to the method:
(§1) In FIGS. 11A and 11B, HEK293 overexpressing human BTLA (FIG. 11A) and Expi293 cells overexpressing cynomolgus BTLA (FIG. 11B) were incubated with different concentrations of selected HFB6-3 humanized variants with cysteine mutations. Anti-BTLA antibodies binding to target cells were quantified with an AF647-conjugated anti-human IgG Fc 2nd antibody by FACS. HFB6-3hz24-hG4P-C109A, HFB6-3hz25-hG4P-C109A, HFB6-3hz24-hG4P-C109S and HFB6-3hz25-hG4P-C109S bound to human BTLA and cyno BTLA with single digit nM and sub-nM EC₅₀, similar as parental HFB6-3 (FIGS. 11A and 11B and Table 13).

Assay [5] concerns the target T2, cynomolgus BTLA on cells. The assay can be described thus: FACS on Expi293 cells overexpressing cynomolgus BTLA, AF647 anti-human IgG Fc detection. As to the method:
(§2) In FIGS. 2A-2B, HEK293 cells overexpressing human BTLA and Expi293 cells overexpressing cynomolgus BTLA were incubated with different concentrations of anti-BTLA parental antibodies. Anti-BTLA antibody binding to target cells was quantified with an AF647-conjugated anti-human IgG Fc 2nd antibody by FACS.

Assay [6] concerns the target T1, human BTLA (B- and T-lymphocyte …). As to the kind of experiment: FACS, primary human B cells, donor 149, AF647 anti-human IgG Fc secondary antibody. As to the method: (§3) In FIGS. 4A-4D, primary T cells and B cells were isolated from human PBMC with EasySep™ Human T Cell Isolation Kit and B cell isolation kit ([…] Technologies: Vancouver, Canada). Isolated T cells or B cells were incubated with different concentrations of anti-BTLA parental antibodies. Anti-BTLA antibody binding to target cells was quantified with an AF647-conjugated anti-human IgG Fc 2nd antibody by FACS.

For assay [7] the target is unchanged. The assay can be described thus: FACS on HEK293 cells overexpressing human BTLA, AF647 anti-human IgG Fc detection. As to the method:
as §2

Assay [8] shares this target. As to the kind of experiment: FACS, primary human B cells, donor 1709, AF647 anti-human IgG Fc secondary antibody. As to the method:
as §3

The target in assay [9] is T2, cynomolgus BTLA on cells. As to the kind of experiment: FACS on Expi293.cynoBTLA cells, AF647 anti-human IgG Fc detection. As to the method: as §1
The target in assay [10] is T1, human BTLA (B- and T-lymphocyte …). The assay can be described thus: cell-based or functional assay.
Assay [11] has the same target. The assay can be described thus: FACS, primary human T cells, donor 149, AF647 anti-human IgG Fc secondary antibody. As to the method: as §3
Assay [12] shares this target. As to the kind of experiment: FACS, primary human T cells, donor 1709, AF647 anti-human IgG Fc secondary antibody. As to the method:
as §3

For assay [13] the target is unchanged. As to the kind of experiment: cell-based or functional assay. This is another data set of the same source.
Assay [14] has the same target. The assay can be described thus: FACS competition on HEK293T.hBTLA cells; competitor hrHVEM-His-DL650. As to the method: In FIG. 12A, recombinant HVEM soluble protein was conjugated with DyLight 650 (DL650) fluorophore. HEK293 cells overexpressing hBTLA (HEK293.BTLA) were preincubated with increasing concentrations of selected HFB6-3 humanized variants with cysteine mutants or parental HFB6-3 at 4° C. for 30 minutes and then with DL650-conjugated HVEM for additional 30 minutes. After washing, soluble HVEM remaining associated with BTLA on HEK293.BTLA cells was measured by FACS.

Another assay deals with T3, recombinant human BTLA (human, UniProt Q7Z6A9 31-157, limits assumed).
T3 construct: ELISA antigen; construct not described
T3 sequence (looked up): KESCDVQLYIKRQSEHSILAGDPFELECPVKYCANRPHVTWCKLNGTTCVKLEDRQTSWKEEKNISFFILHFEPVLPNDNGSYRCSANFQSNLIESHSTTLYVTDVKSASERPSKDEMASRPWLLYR
The assay can be described thus: ELISA on recombinant human BTLA. (In general: In an ELISA, binding on a coated surface is turned into a signal by an enzyme label.)

The target in assay [15] is T1, human BTLA (B- and T-lymphocyte …). The assay can be described thus: cell-based or functional assay. The source holds these as a separate data set.

B1: 22B3 (antibody, V domains shown)
VH: QVQLVQSGAEVKKPGASVKVSCKASGFSLSSYGVSWVRQAPGQGLEWMGAISYDGITYYASWAKSRVTMTRDTSTSTVYMELSSLRSEDTAVYYCARGDYYDDYVYVYALDIWGQGTLVTVSS
VL: EIVLTQSPGTLSLSPGERATLSCQASQSISTALAWYQQKPGQAPRLLIYAASTLASGIPDRFSGSGSGTDFTLTISRLEPEDFAVYYCQQGYSSSNLDNVFGGGTKVEIKR
As a reminder, the EC50 (read off the curve) is the concentration at which the effect is half-maximal. Read a low EC50 (read off the curve) as greater potency. B1: the “EC50 (read off the curve)” value in [1] is ~0.8 nM; with cynomolgus BTLA on cells [2], ~0.6 nM.

B2: HFB6-3 (antibody, V domains shown)
VH: EVQLQQSGAELVKPGASVKLSCTDSGFNIKDTYIHWVTQRPQQGLEWIGRIDPANGFTRYDPKFQGKATITSDTSSNTAYLQLSSLTSEDTAVYYCAREDGYPYYTLDCWGQGTSVTVSS
VL: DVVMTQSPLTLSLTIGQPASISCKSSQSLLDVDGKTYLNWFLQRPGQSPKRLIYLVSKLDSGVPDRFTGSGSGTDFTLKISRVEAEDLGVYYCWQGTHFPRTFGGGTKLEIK
notes: Mouse lead antibody; also called HFB6-3-hG4P; parental HFB6-3
For orientation: IC50 means the concentration at which inhibition is half-maximal. High values mean weaker potency, low ones greater potency. One may read the EC50 as the midpoint of the concentration-response curve. For the molecule B2, the IC50 is 7.71 nM in assay [3] and 2.69 nM in assay [14]. Moreover, the EC50 in [4] stood at 3.21 nM; in the assay with cynomolgus BTLA on cells [5], 0.823 nM; in [6] it was 0.44 nM; in assay [7], 1.45 nM; in assay [8], 0.28 nM; with cynomolgus BTLA on cells [9] it was 5.7 nM. Besides, the EC50 came to 3.7 nM in assay [11] and 7.3 nM in assay [12]. Besides, the “BTLA-HVEM blockade reporter assay, EC50” value in assay [10] turned out to be 12.5 nM. The “CHO.TCRa.hHVEM/Jurkat.hBTLA.NFAT-luc (EC50 (nM))” value in assay [13] came out at 7.9 nM.

B3: HFB6-2 (antibody, V domains shown)
VH: EVQLQQSGAELVKPGASVKLSCTASGVNIKDTYMYWVKQRPEQGLEWIGRIDPANGYTRYDPKFQDKATVTADTSSNTAHLQLSSLTSEDTAVYYCAVNDGYFEYFDVWGAGTTVTVSS
VL: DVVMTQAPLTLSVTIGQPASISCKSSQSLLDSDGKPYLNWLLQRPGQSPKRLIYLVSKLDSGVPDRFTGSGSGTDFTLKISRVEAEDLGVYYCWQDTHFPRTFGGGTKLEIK
notes: Mouse lead antibody; also called HFB6-2-hG4P; parental HFB6-2
Consider B3, for which the IC50 in [3] worked out at 5.45 nM. Besides, the half-maximal effective concentration (EC50) in the assay with cynomolgus BTLA on cells [5] came to 0.614 nM; in assay [6], 0.8 nM; in [7], 2.34 nM; in the assay with recombinant human BTLA, 2.35 nM; in [8] it was 0.28 nM; in [11], 1.4 nM. In assay [12], this molecule registered an EC50 of 2 nM. Moreover, the “Reporter EC50” value in [15] came out at 11.5 nM. Further, the “BTLA-HVEM blockade reporter assay, EC50” value in assay [10] stood at 10.2 nM.

(Values after patent US20250304693A1 (HIFIBIO, published 2025).)
